The EC50 (read off the curve) is the concentration needed to bring the measured effect to its halfway point. The low end stands for greater potency, the high end for weaker potency.

Experimental findings from patent publication US20240124553A1 are described below.

Test [1] addresses CHIKV virus-like particles (strain 37997) (chikungunya virus).
The target in test [2] is CHIKV strain 181/25 (virions; also E2-E1 shown on infected cells) (chikungunya virus). Nature of the test: ELISA, CHIKV-181/25 captured with a human anti-CHIKV mAb, anti-mouse IgG-HRP.
Test [3] concerns the target CHIKV virus-like particles (strain 37997) (chikungunya virus). The source holds these as a separate data set.
Test [4] addresses CHIKV E2-6K-E1 envelope proteins (strain S27) with E2 Q195A (Chikungunya virus strain S27) (UniProt Q8JUX5). Briefly: flow cytometry, transfected 293T cells.

Like-named read-outs stand apart in the source and are kept apart here.

B1: Mxra8-Fc (extracellular domain of mouse Mxra8 fused to mouse IgG2b Fc) (Fc fusion)
chain: SGPSGTAAASSSLVSESVVSLAAGTQAVLRCQSPRMVWTQDRLHDRQRVVHWDLSGGPGSQRRRLVDMYSAGEQRVYEPRDRDRLLLSPSAFHDGNFSLLIRAVDRGDEGVYTCNLHHHYCHLDESLAVRLEVTEDPLLSRAYWDGEKEVLVVAHGAPALMTCINRAHVWTDRHLEEAQQVVHWDRQLPGVSHDRADRLLDLYASGERRAYGPPFLRDRVSVNTNAFARGDFSLRIDELERADEGIYSCHLHHHYCGLHERRVFHLQVTEPAFEPPARASPGNGSGHSSAPSPDPTLTRGHSIINVIVPEDHTHPSGPISTINPCPPCKECHKCPAPNLEGGPSVFIFPPNIKDVLMISLTPKVTCVVVDVSEDDPDVQISWFVNNVEVHTAQTQTHREDYNSTIRVVSTLPIQHQDWMSGKEFKCKVNNKDLPSPIERTISKIKGLVRAPQVYILPPPAEQLSRKDVSLTCLVVGFNPGDISVEWTSNGHTEENYKDTAPVLDSDGSYFIYSKLNMKTSKWEKTDSFSCNVRHEGLKNYYLKKTISRSPGK
Consider B1, for which the EC50 (read off the curve) turned out to be 0.01 µg/mL in test [1], 0.1 µg/mL in test [2] and 0.01 µg/mL in test [3].

B2: Mxra8-Fc (mouse Mxra8 extracellular domain fused to mouse IgG2b Fc) (Fc fusion)
chain: B1 chain
Consider B2, for which the Binding Reactivity (% WT) in test [4] came to 82.4 % WT.

B3: MXRA8-2-Fc (extracellular domain of human MXRA8-2 fused to mouse IgG2b Fc) (Fc fusion)
chain: ISVLLHSGSSVPAAAGSSVVSESAVSWEAGARAVLRCQSPRMVWTQDRLHDRQRVLHWDLRGPGGGPARRLLDLYSAGEQRVYEARDRGRLELSASAFDDGNFSLLIRAVEETDAGLYTCNLHHHYCHLYESLAVRLEVTDGPPATPAYWDGEKEVLAVARGAPALLTCVNRGHVWTDRHVEEAQQVVHWDRQPPGVPHDRADRLLDLYASGERRAYGPLFLRDRVAVGADAFERGDFSLRIEPLEVADEGTYSCHLHHHYCGLHERRVFHLTVAEPHAEPPPRGSPGNGSSHSGAPGPDPTLARGHNVINVIVPESRAHASVRSPSGPISTINPCPPCKECHKCPAPNLEGGPSVFIFPPNIKDVLMISLTPKVTCVVVDVSEDDPDVQISWFVNNVEVHTAQTQTHREDYNSTIRVVSTLPIQHQDWMSGKEFKCKVNNKDLPSPIERTISKIKGLVRAPQVYILPPPAEQLSRKDVSLTCLVVGFNPGDISVEWTSNGHTEENYKDTAPVLDSDGSYFIYSKLNMKTSKWEKTDSFSCNVRHEGLKNYYLKKTISRSPGK
In turn, B3 returned a concentration for a half-maximal effect (EC50 (read off the curve)) in test [1] of 0.05 µg/mL.
